Test results: the DeepSol protein solubility set

Assay: soluble on expression in E. coli; label from the status in PepcDB or PDB records

Sequence | soluble on expression in E. coli
MAHHHHHHMELLTSVFQRHPPALRLHRELTIALADGDSARAADLASVLATTVQRVVAAEADSSDAATPPEGHANTGHFSQRDIPVAGLEDVEEAVEKTRQTLLREATVRVSSGVARDTGGSAISSEPAAAERSLPFWRDPERLCVTILESMFETEVLGGESQDTLTAAGNRAAEHEAEQVRILDAYLDKEGARWNAQKAAIAKIVLDVTRSLGLTPEDLQAFEGISASAGAGAAAAAGERKLNVLRHSNLVIRGEMPSAPLSSTASECVAEGVETELRALEERMSSLGQPLTPWEVRMARYELQMSKSKMRYVVGVHKELQLALDHSAALRASLREKSTAEVTFTTGTEVFMAEVIRALNEGADAYSANVTAEGAQLTVSNVKAREAVESPVLPFTFMLKGSLWFTTAPSRPPSSSSD | soluble
MTEEFNESMINDIKEGDKVTGEVQQVEDKQVVVHINGGKFNGIIPISQLSTHHIENPSEVVKQGDEIEAYVTKIEVDEENDSGVYILSKRQLETEKSYEYLQEKLDNDEIIEAKVTEVVKGGLVVDVGQRGFVPASLISTDFIEDFSVFDGQTIRIKVEELDPENNRVILSRKAVEQAENDVKKASLLESLNAGDVIKGKVARLTNFGAFVDIGGVDGLVHVSELSHEHVDSPEDVVSVGQEVDVKVKSVEKDAERISLSIKDTLPTPFESIKGQFHEDDVIEGKVVRLANFGAFVEIAPGVQGLVHISEIAHEHIGTPGEKLEPGQQVNVKILGIDEENERISLSIKATLPKEDVVESDDATTQSYLSNDSIEDNPTLGDVFGDKFKDLKF | soluble
MFNEKDQLAVDTLRALSIDTIEKANSGHPGLPMGAAPMAYTLWTRHLNFNPQSKDYFNRDRFVLSAGHGSALLYSLLHVSGSLELEELKQFRQWGSKTPGHPEYRHTDGVEVTTGPLGQGFAMSVGLALAEDHLAGKFNKEGYNVVDHYTYVLASDGDLMEGISHEAASFAGHNKLSKLVVLYDSNDISLDGELNKAFSENTKARFEAYGWNYLLVKDGNDLEEIDKAITTAKSQEGPTIIEVKTTIGFGSPNKAGTNGVHGAPLGEVERKLTFENYGLDPEKRFNVSEEVYEIFQNTMLKRANEDESQWNSLLEKYAETYPELAEEFKLAISGKLPKNYKDELPRFELGHNGASRADSGTVIQAISKTVPSFFGGSADLAGSNKSNVNDATDYSSETPEGKNVWFGVREFAMGAAVNGMAAHGGLHPYGATFFVFSDYLKPALRLSSIMGLNATFIFTHDSIAVGEDGPTHEPIEQLAGLRAIPNMNVIRPADGNETRVAWEVALESESTPTSLVLTRQNLPVLDVPEDVVEEGVRKGAYTVYGSEETPEFLLLASGSEVSLAVEAAKDLEKQGKSVRVVSMPNWNAFEQQSEEYKESVIPSSVTKRVAIEMASPLGWHKYVGTAGKVIAIDGFGASAPGDLVVEKYGFTKENILNQVMSL | not soluble
LDFDILTNDGTHRNMKLLIDLKNIFSRQLPKMPKEYIVKLVFDRHHESMVILKNKQKVIGGICFRQYKPQRFAEVAFLAVTANEQVRGYGTRLMNKFKDHMQKQNIEYLLTYADNFAIGYFKKQGFTKEHRMPQEKWKGYIKDYDGGTLMECYIHPYVDYGR | soluble
MEPDLKNVKNAGTGESNKDEIKNTNASRRSGRKVKTIIEEDPNINKKMELPPTLMPKFPSQKIIKQQKSPDKNEPPPARPVEQTEENEENNADEKEKHEIFWQEGVIEECQGREDEGEVPKEQEEHAHVSPDPTSLNDKKSKFEKPNLEPGKPEKPEKLDKPLAKPLPPPSAAPPPVAPLSAPVPSTGAPPSAVPPADKKMSKQSTRDKKSGRSTDRNIHKKKDVAALDENKKSPEDKKKDAGTKKGSTEDASTDNLNNGKVQSRRKSKRQKKSIFQQPVQRTPGSHPSAYLQPTRARTERSLKLPPAEPKSVDERPRKPSTQILQPQQPNRGGQVQKQPSKVVLQPGAPGATPVASTPNQREQAQQQQQQQQKGPMGLFKKIYRKMNFRAASDCTVEPTKEMLAKSYVRPEHNSNDPIDFCPDLPKKLFDEEAWKLRMTNKGANRNEVFLNNRPFWLTRDGTEQIPKVRIQLHRPLKQMHSGNPASIQLKLQRTDPFLDPKEDTLERLKIVDKAIGVDPLDLTKDRELKRVCANTFHGTLMFEVDKRQYDTQQKKAEAEALKLDPKRKNDGKEKDQKSSFEDPKKVAFNVSDKCTLHVYFRKHRPLTNQGKSERFTEKKYTMGERKIMKKGEKPAVPQLVPPTSSSTTSASSSSCRETKKL | not soluble
MHGKDPFSDFREFINTMESRVQELGKAYGVEHLAGPQGFAVRYLFENQDKEIFIKDIEKKLSISKSVASNLVKRMEKNGFVELVTSDKDKRYKYVHLTDLGKKKAQDVGHFREAIHGQLLDGISKEDAETAFRVFHQIRKNLEKNKE | not soluble
